Measurements taken from patent publication WO2010028798A1 (dated 2010).

B1: AA-2320 (antibody)
chain 1: EVKLVESGGGLVKPGGSLKLSCAASGFTFSTYAMSWVRQTPEKRLEWVASISTGDNTYYTDSVRGRFTISRDNARNILYLQMSSLRSEDTAMYFCTRGRGDRGDLFGYWGQGTLVTVSS
chain 2: GGGGSGGGGSEVKLVESGGGLVKPGGSLKLSCAASGFTFSTYAMSWVRQTPEKRLEWVASISTGDNTYYTDSVRGRFTISRDNARNILYLQMSSLRSEDTAMYFCTRGRGDRGDLFGYWGQGTLVTVSSGGGGSGGGGSGGGGSDIVMSQSPSSLAVSVGEKVTMSCKSSQSLLYRGNQMNYLAWYQQKPGQSPKLLIYWASTRESGVPDRFTGSGSGTEFTLTISSVKAEDLTVYYCQQYYTYPRTFGGGTKLEIKR
chain 3: DIVMSQSPSSLAVSVGEKVTMSCKSSQSLLYRGNQMNYLAWYQQKPGQSPKLLIYWASTRESGVPDRFTGSGSGTEFTLTISSVKAEDLTVYYCQQYYTYPRTFGGGTKLEIKR
B2: AN-1000 (antibody, V domains shown)
VH: B1 chain 1
VL: B1 chain 3

Molecular target: human CCR5 (human, UniProt P51681 1-352)
Test: cell-based or functional assay

Sequence of human CCR5 (P51681 whole entry): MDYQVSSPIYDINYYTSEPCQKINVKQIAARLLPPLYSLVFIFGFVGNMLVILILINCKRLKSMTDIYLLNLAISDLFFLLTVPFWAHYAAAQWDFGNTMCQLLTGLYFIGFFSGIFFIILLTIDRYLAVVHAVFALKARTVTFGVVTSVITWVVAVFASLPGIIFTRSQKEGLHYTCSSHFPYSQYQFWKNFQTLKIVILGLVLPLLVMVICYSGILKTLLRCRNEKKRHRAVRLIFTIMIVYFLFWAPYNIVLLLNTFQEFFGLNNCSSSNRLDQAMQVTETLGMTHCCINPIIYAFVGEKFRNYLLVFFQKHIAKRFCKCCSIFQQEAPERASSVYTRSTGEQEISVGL

Binder | IC50, antiviral assay in PBMC (HIV-1 NLBal, p24 ELISA) [pM]
B1 | 88
B2 | 988
